Tests used:
CEA = biological target: T1, CEA (Homo sapiens, UniProt P06731); assay: SE-HPLC analysis of in vitro immunoreactivity with CEA; type: binding; details: 125I-labeled protein; complexes bound to either one or two CEAs
T1 sequence (P06731 35-676): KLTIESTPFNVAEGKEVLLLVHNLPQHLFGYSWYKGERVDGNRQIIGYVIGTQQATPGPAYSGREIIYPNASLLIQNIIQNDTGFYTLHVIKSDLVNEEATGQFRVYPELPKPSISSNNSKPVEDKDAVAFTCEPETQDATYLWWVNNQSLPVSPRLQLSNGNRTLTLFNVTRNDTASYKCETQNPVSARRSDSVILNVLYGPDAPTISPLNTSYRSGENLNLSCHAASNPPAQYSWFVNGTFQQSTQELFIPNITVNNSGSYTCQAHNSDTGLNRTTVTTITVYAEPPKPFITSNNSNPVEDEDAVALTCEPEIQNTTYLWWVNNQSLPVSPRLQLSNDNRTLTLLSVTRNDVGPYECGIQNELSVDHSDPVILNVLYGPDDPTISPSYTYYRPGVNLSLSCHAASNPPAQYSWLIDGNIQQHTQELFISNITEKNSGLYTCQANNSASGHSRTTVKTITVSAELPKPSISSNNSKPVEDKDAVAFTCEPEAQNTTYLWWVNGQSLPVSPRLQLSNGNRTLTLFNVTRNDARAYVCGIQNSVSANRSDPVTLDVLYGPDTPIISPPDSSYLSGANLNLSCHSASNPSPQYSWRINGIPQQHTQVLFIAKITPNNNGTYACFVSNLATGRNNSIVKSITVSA
Excerpt: Confirmation that BS14HP has the ability to bind CEA bivalently was provided by SE-HPLC analysis of in vitro immunoreactivity. […] (FIG. 6B).

[1] = BIAcore binding to HSG immobilized on a sensorchip
Excerpt: If the W12 binding is allowed to approach saturation, the stoichiometry of the binding can be determined. The additional increase in RU resulting from W12 binding was compared to the initial RU increase of the hBS14 upon binding to the HSG-sensorchip. As each increase in RU level is directly proportional to the mass bound, the WI2:bsAb molar binding ratio can be calculated using the formula (RUWI2/RUhBS14)×(MWhBS14/MWWI2). hBS14 was designed to be bivalent for CEA (and monovalent for HSG) and as such should bind W12 (also bivalent) with a 1:1 molar ratio. […] When equal concentrations of hBS14 were bound to an HSG-sensorchip, BIAcore sensorgrams are indistinguishable between lots derived from either SP2/0 or YB2/0 cells (FIG. 17).

[2] = test system: human colonic tumor (GW-39) xenograft; assay: Imaging of mice pre-targeted with hBS14 followed by 99mTc-IMP-245; type: in vivo, nude mice
Method: The experiment used 3 groups of 15 mice, each of which was necropsied, and 1 group of 5 mice that was imaged. Three groups of mice were administered 6 μCi ^125I-hBS14 (40 μg, 5.0×10^−10 moles). In the last group (imaging group), 3 mice received unlabeled hBS14. The amount of ^99mTc-IMP-245 administered to all the mice was ˜40 μCi (92 ng, 5.0×10^−11 moles) for a bispecific:peptide ratio of 10:1.
Animals 1 & 2 were given peptide only, while animals 3, 4, & 5 were administered hBS14 followed by peptide.

binding to immobilized HSG [1]: bound tightly
B1: hBS14: bispecific trivalent heterodimer (hMN-14×hMN-14×679) expressed in myeloma cells, SEQ ID NO:11 and 12 (antibody)
heavy: MEVQLVESGGDLVKPGGSLKLSCAASGFTFSIYTMSWLRQTPGKGLEWVATLSGDGDDIYYPDSVKGRFTISRDNAKNSLYLQMNSLRAEDTALYYCARVRLGDWDFDVWGQGTTVSVSSGGGGSDIQLTQSPSSLSASVGDRVTITCKASQDVGTSVAWYQQKPGKAPKLLIYWTSTRHTGVPSRFSGSGSGTDFTFTISSLQPEDIATYYCQQYSLYRSFGQGTKVEIKRLEGGGSEVQLVESGGGVVQPGRSLRLSCSASGFDFTTYWMSWVRQAPGKGLEWIGEIHPDSSTINYAPSLKDRFTISRDNAKNTLFLQMDSLRPEDTGVYFCASLYFGFPWFAYWGQGTPVTVSVDHHHHHH
light: MDIQLTQSPSSLSASVGDRVTITCKASQDVGTSVAWYQQKPGKAPKLLIYWTSTRHTGVPSRFSGSGSGTDFTFTISSLQPEDIATYYCQQYSLYRSFGQGTKVEIKRGGGQFMEVQLVESGGGVVQPGRSLRLSCSASGFDFTTYWMSWVRQAPGKGLEWIGEIHPDSSTINYAPSLKDRFTISRDNAKNTLFLQMDSLRPEDTGVYFCASLYFGFPWFAYWGQGTPVTVSGGGGSDIVMTQSPSSLAVSPGERVTLTCKSSQSLFNSRTRKNYLGWYQQKPGQSPKLLIYWASTRESGVPDRFSGSGSGTDFTLTINSLQAEDVAVYYCTQVYYLCTFGAGTKLELKRLDHHHHHH
SE-HPLC peak shifts on mixing with increasing amounts of CEA (CEA): two distinct peak shifts
tumor visibility in images ([2]; 1 hr post-peptide administration, hBS14 48-hr clearance then 99mTc-IMP-245): clearly visible
location of signal in images ([2]; 24 hrs post-peptide administration, imaged for 20 minutes): only signal detected was located in the tumors
